Experimental data reported in PMC7840129, “Structural basis for heme-dependent NCoR binding to the transcriptional repressor REV-ERBβ” (Science Advances, 2021).
Read-outs that look alike come from different tables or passages of the source.

How the values were obtained:
Apo REV-ERBβ LBD = molecular target: T1, Apo REV-ERBβ LBD (Homo sapiens, UniProt Q14995); test: ITC, NCoR RID constructs with apo REV-ERBβ LBD; assay type: binding; conditions: WT RID; for Kd: LBD 150 μM (2 × 20 injections) into 15 μM RID, pH 7.4, 25°C, two nonsymmetric sites, microscopic K model
T1 construct: The human REV-ERBβ LBD (residues 381 to 579) was previously cloned; 6xHis with 3C protease cleavage site (N, cleaved yes); made in house; host or cells: E. coli BL21(DE3)
T1 sequence (Q14995 381-579): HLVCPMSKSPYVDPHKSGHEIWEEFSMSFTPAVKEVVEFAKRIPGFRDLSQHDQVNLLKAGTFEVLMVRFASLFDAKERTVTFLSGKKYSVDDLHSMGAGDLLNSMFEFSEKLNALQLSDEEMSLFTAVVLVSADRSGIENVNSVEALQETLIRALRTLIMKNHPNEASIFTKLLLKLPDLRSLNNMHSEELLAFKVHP
Protocol: (§1) Human REV-ERBβ LBD was expressed in BL21(DE3) Escherichia coli cells with an N-terminal hexahistidine (6xHis) tag separated by a 3C protease cleavage site. Expression was performed using auto-induction media: Cells were grown at 37°C for 5 hours, 30°C for 1 hour, and 18°C for 16 hours before harvesting by centrifugation. Pellets were resuspended in potassium phosphate lysis buffer [40 mM potassium phosphate (pH 7.4), 500 mM KCl, 15 mM imidazole, and 1 mM dithiothreitol (DTT)] supplemented with leupeptin, pepstatin A, lysozyme, and deoxyribonuclease (DNase) I and sonicated on ice. […] A 5-ml aliquot of 6xHis-tagged protein was purified by size exclusion chromatography using a Superdex 75 column equilibrated in time-resolved fluorescence energy transfer (TR-FRET) assay buffer [20 mM potassium phosphate (pH 7.4), 50 mM KCl, and 0.5 mM EDTA]; purified aliquots were stored at −80°C for TR-FRET assays. To cleave the 6xHis tag from the remaining protein, it was incubated overnight with 3C protease (generated in-house) via dialysis; then, protein was reloaded onto the HisTrap columns, and the flow-through was collected. Last, aggregates were removed by size exclusion chromatography using a Superdex 75 column and Hepes gel filtration buffer [20 mM Hepes (pH 7.4), 50 mM KCl, and 0.5 mM EDTA]. Greater than 95% purity was confirmed by SDS-PAGE. Protein was aliquoted and stored at −80°C.
(§2) ITC experiments were performed using a MicroCal iTC200. All experiments were solvent-matched and contained 0.1% DMSO (peptide vehicle) and 0.2% 0.2 M solution of NaOH (heme vehicle) final concentrations. NITPIC software ([37]) was used to calculate baselines and integrate curves and prepare experimental data for fitting in SEDPHAT, which was used to generate final binding affinity and thermodynamic parameter measurements ([38]).Final figures were exported to GUSSI for publication-quality figure preparation ([39]).
[…] REV-ERBβ LBD in the syringe was titrated into the RID in the sample cell as described above, with the exception that a total of 4 molar equivalents were titrated over 20 injections. […] For apo LBD into WT RID, data were fit to A + B ↔ AB + B ↔ BA + A ↔ BAB, with two nonsymmetric sites, microscopic K model in SEDPHAT. For apo LBD into ΔID2, data were fit to an A + B ↔ AB hetero-association model in SEDPHAT. For heme-bound LBD into WT RID, data were fit to an A + B ↔ AB hetero-association model in SEDPHAT.
NCoR RID constructs (including WT, ΔID1, ΔID2, and ΔID1ΔID2) were transformed into BL21(DE3) E. coli cells, which were grown in 2 liters of Terrific Broth media [yeast extract (24 g/liter), tryptone (12 g/liter), KH2PO4 ([…]), K2HPO4 ([…]), and glycerol (4 ml/liter)] at 37°C until OD600 reached 0.7 to 0.8. Expression was induced with 0.75 mM IPTG for 2 hours at 37°C before cells were harvested by centrifugation. Pellets were washed 1× with phosphate-buffered saline and stored at −80°C until purification. Pellets were resuspended on ice in Hepes lysis buffer [25 mM Hepes (pH 7.4), 150 mM NaCl, 2 M urea, and 15 mM imidazole] supplemented with 1 mM DTT, pepstatin A, leupeptin, lysozyme, DNase I, phenylmethylsulfonyl fluoride, and 0.1% Tween 20, and cell slurry was sonicated on ice. Lysed cells were centrifuged at 20,000g for 30 min at 4°C, and soluble lysate was filtered before IMAC purification using 2 × 5 ml HisTrap columns (GE Healthcare) affixed to an ÄKTA pure; elution buffer was 25 mM Hepes (pH 7.4), 150 mM NaCl, and 500 mM imidazole. Fractions were pooled; additional protease inhibitors were added, and protein was dialyzed against 25 mM Hepes (pH 7.0), 150 mM NaCl, and 1 mM DTT with Tobacco etch virus (TEV) protease to cleave the Trx-6xHis tag at 4°C overnight. Cleaved protein was reloaded on HisTrap columns and eluted with 50 mM bis-tris (pH 6.7), 150 mM NaCl, and 1 mM DTT. […]

heme-bound REV-ERBβ LBD = molecular target: T2, heme-bound REV-ERBβ LBD (Homo sapiens, UniProt Q14995); test: ITC, NCoR RID constructs with heme-bound REV-ERBβ LBD; assay type: binding
T2 construct: The human REV-ERBβ LBD (residues 381 to 579) was previously cloned; 6xHis with 3C protease cleavage site (N, cleaved yes); made in house; host or cells: E. coli BL21(DE3)
T2 sequence (Q14995 381-579): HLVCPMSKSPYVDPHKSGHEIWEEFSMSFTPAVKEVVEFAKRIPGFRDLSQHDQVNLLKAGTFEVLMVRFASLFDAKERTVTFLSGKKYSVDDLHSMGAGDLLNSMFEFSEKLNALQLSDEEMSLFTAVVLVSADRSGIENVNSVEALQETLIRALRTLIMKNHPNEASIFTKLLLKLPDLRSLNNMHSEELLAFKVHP
Protocol: as §1, §2
NCoR RID constructs (WT, ΔID1, ΔID2, or ΔID1ΔID2) were prepared in assay buffer at 15 μM, and REV-ERBβ LBD was prepared at 300 μM. REV-ERBβ LBD in the syringe was titrated into the RID in the sample cell as described above, with the exception that a total of 4 molar equivalents were titrated over 20 injections. […] For apo LBD into WT RID, data were fit to A + B ↔ AB + B ↔ BA + A ↔ BAB, with two nonsymmetric sites, microscopic K model in SEDPHAT. For apo LBD into ΔID2, data were fit to an A + B ↔ AB hetero-association model in SEDPHAT. For heme-bound LBD into WT RID, data were fit to an A + B ↔ AB hetero-association model in SEDPHAT.
NCoR RID constructs (including WT, ΔID1, ΔID2, and ΔID1ΔID2) were transformed into BL21(DE3) E. coli cells, which were grown in 2 liters of Terrific Broth media [yeast extract (24 g/liter), tryptone (12 g/liter), KH2PO4 ([…]), K2HPO4 ([…]), and glycerol (4 ml/liter)] at 37°C until OD600 reached 0.7 to 0.8. Expression was induced with 0.75 mM IPTG for 2 hours at 37°C before cells were harvested by centrifugation. Pellets were washed 1× with phosphate-buffered saline and stored at −80°C until purification. Pellets were resuspended on ice in Hepes lysis buffer [25 mM Hepes (pH 7.4), 150 mM NaCl, 2 M urea, and 15 mM imidazole] supplemented with 1 mM DTT, pepstatin A, leupeptin, lysozyme, DNase I, phenylmethylsulfonyl fluoride, and 0.1% Tween 20, and cell slurry was sonicated on ice. […]

[1] = +Heme LBD, WT RID, 25°C, A + B ↔ AB model, 95% CI

Kd (Apo REV-ERBβ LBD; 95% CI, read-out: KD, Site 1): 12 nM
Kd (Apo REV-ERBβ LBD; 95% CI, read-out: KD, Site 2): 740 nM
TΔS, Site 1 (Apo REV-ERBβ LBD; site 1, 25°C, 95% CI): 2.5 kcal/mol
ΔG, Site 1 (Apo REV-ERBβ LBD; site 1, 25°C, 95% CI): -10.8 kcal/mol
ΔH, Site 1 (Apo REV-ERBβ LBD; site 1, 25°C, 95% CI): -8.3 kcal/mol
TΔS, Site 2 (Apo REV-ERBβ LBD; site 2, 25°C, 95% CI): 12 (95% CI: 11 to13) kcal/mol
ΔG, Site 2 (Apo REV-ERBβ LBD; site 2, 25°C, 95% CI): -8.4 kcal/mol
ΔH, Site 2 (Apo REV-ERBβ LBD; site 2, 25°C, 95% CI): 3.2 kcal/mol
TΔS (heme-bound REV-ERBβ LBD; [1]): 11.2 kcal/mol
ΔG (heme-bound REV-ERBβ LBD; [1]): -9.6 kcal/mol
ΔH (heme-bound REV-ERBβ LBD; [1]): 1.7 kcal/mol
Kd (heme-bound REV-ERBβ LBD; +Heme LBD, WT RID, LBD 300 μM into 15 μM RID, pH 7.4, 25°C, A + B ↔ AB hetero-association model, 95% CI): 99 nM
RID binding to heme-bound LBD (in words) (heme-bound REV-ERBβ LBD; heme-bound LBD, RID mutants and WT): must involve positive cooperativity
B1: WT RID: mouse NCoR RID (residues 1942 to 2208 in the X50 splice variant) (protein, UniProt Q60974 1942-2208, looked up, fragment)
chain: TITAANFIDVIITRQIASDKDARERGSQSSDSSSSLSSHRYETASDAIEVISPASSPAPPQEKPQAYQPDMVKANQAENESTRQYEGPLHHYRSQQESPSPQQQPPLPPSSQSEGMGQVPRTHRLITLADHICQIITQDFARNQVPSQASTSTFQTSPSALSSTPVRTKTSSRYSPESQSQTVLHPRPGPRVSPENLVDKSRGSRPGKSPERSHIPSEPYEPISPPQGPAVHEKQDSMLLLSQRGVDPAEQRSDSRSPGSISYLPSF
modifications: X50 splice variant
LBD:RID stoichiometry (Apo REV-ERBβ LBD): two apo LBDs interact with one RID, most likely with positive cooperativity
